“And” between values parts separate entries of the source, which are not always exact repeats. Equal values may be shown once.

The values below come from US20200377595A1 (Chugai, published 2020).

The target of the assay is biotinylated CD3 epsilon epitope peptide. Put plainly: SPR, method of Ref. Ex. 3, one-arm Ab.

B1: CE115HA000 V11L/D72A/L78I/D101Q with GGSGGSGGS inserted between Kabat 99 and 100, one-arm antibody (antibody)
chain 1: QVQLVESGGGLVQPGRSLRLSCAASGFTFSNAWMHWVRQAPGKGLEWVAQIKAKSNNYATYYAESVKGRFTISRADSKNSIYLQMNSLKTEDTAVYYCRYVHYGAGGSGGSGGSYYGVQAWGQGTTVTVSSASTKGPSVFPLAPSSKSTSGGTAALGCLVKDYFPEPVTVSWNSGALTSGVHTFPAVLQSSGLYSLSSVVTVPSSSLGTQTYICNVNHKPSNTKVDKKVEPKSCDKTHTCPPCPAPEAAGGPSVFLFPPKPKDTLMISRTPEVTCVVVDVSHEDPEVKFNWYVDGVEVHNAKTKPREEQYASTYRVVSVLTVLHQDWLNGKEYKCKVSNKALPAPIEKTISKAKGQPREPQVYTLPPSRCELTKNQVSLSCAVKGFYPSDIAVEWESNGQPENNYKTTPPVLDSDGSFFLVSKLTVDKSRWQQGNVFSCSVMHEALHNHYTQKSLSLSPDYKDDDDK
chain 2: EPKSSDKTHTCPPCPAPELLGGPSVFLFPPKPKDTLMISRTPEVTCVVVDVSHEDPEVKFNWYVDGVEVHNAKTKPREEQYNSTYRVVSVLTVLHQDWLNGKEYKCKVSNKALPAPIEKTISKAKGQPREPQVCTLPPSRDELTKNQVSLWCLVKGFYPSDIAVEWESNGQPENNYKTTPPVLDSDGSFFLYSKLTVDKSRWQQGNVFSCSVMHEALHNRYTQKSLSLSP
chain 3: DIVMTQSPLSLPVTPGEPASISCRSSQSLVHSNRNTYLHWYQQKPGQAPRLLIYKVSNRFSGVPDRFSGSGSGTDFTLKISRVEAEDVGVYYCGQGTQVPYTFGQGTKLEIKRTVAAPSVFIFPPSDEQLKSGTASVVCLLNNFYPREAKVQWKVDNALQSGNSQESVTEQDSKDSTYSLSSTLTLSKADYEKHKVYACEVTHQGLSSPVTKSFNRGEC
For orientation: Kd means the free concentration of one partner at which half of the binding sites on the other are occupied at equilibrium, for simple one-to-one binding. Read a high Kd as lower affinity. In the case of B1, the Kd was 43.9 nM and 35.4 nM.

B2: CE115HA000 V11L/D72A/L78I/D101Q without insertion, one-arm antibody (antibody, human IgG1, kappa, L234A L235A, N297A, name in Kabat numbering)
heavy: QVQLVESGGGLVQPGRSLRLSCAASGFTFSNAWMHWVRQAPGKGLEWVAQIKAKSNNYATYYAESVKGRFTISRADSKNSIYLQMNSLKTEDTAVYYCRYVHYGAYYGVQAWGQGTTVTVSSASTKGPSVFPLAPSSKSTSGGTAALGCLVKDYFPEPVTVSWNSGALTSGVHTFPAVLQSSGLYSLSSVVTVPSSSLGTQTYICNVNHKPSNTKVDKKVEPKSCDKTHTCPPCPAPEAAGGPSVFLFPPKPKDTLMISRTPEVTCVVVDVSHEDPEVKFNWYVDGVEVHNAKTKPREEQYASTYRVVSVLTVLHQDWLNGKEYKCKVSNKALPAPIEKTISKAKGQPREPQVYTLPPSRCELTKNQVSLSCAVKGFYPSDIAVEWESNGQPENNYKTTPPVLDSDGSFFLVSKLTVDKSRWQQGNVFSCSVMHEALHNHYTQKSLSLSPDYKDDDDK
chain: EPKSSDKTHTCPPCPAPELLGGPSVFLFPPKPKDTLMISRTPEVTCVVVDVSHEDPEVKFNWYVDGVEVHNAKTKPREEQYNSTYRVVSVLTVLHQDWLNGKEYKCKVSNKALPAPIEKTISKAKGQPREPQVCTLPPSRDELTKNQVSLWCLVKGFYPSDIAVEWESNGQPENNYKTTPPVLDSDGSFFLYSKLTVDKSRWQQGNVFSCSVMHEALHNRYTQKSLSLSP
light: DIVMTQSPLSLPVTPGEPASISCRSSQSLVHSNRNTYLHWYQQKPGQAPRLLIYKVSNRFSGVPDRFSGSGSGTDFTLKISRVEAEDVGVYYCGQGTQVPYTFGQGTKLEIKRTVAAPSVFIFPPSDEQLKSGTASVVCLLNNFYPREAKVQWKVDNALQSGNSQESVTEQDSKDSTYSLSSTLTLSKADYEKHKVYACEVTHQGLSSPVTKSFNRGEC
notes: one-arm antibody; 'No insertion' read as the altered H chain without linker; also called No insertion
For the molecule B2, the affinity, expressed as Kd, was 6.96 nM.
